Measurements taken from article PMC6065307, “Structural dynamics of the transaminase active site revealed by the crystal structure of a co-factor free omega-transaminase from Vibrio fluvialis JS17” (Scientific Reports, 2018).

Target: the molecule itself
Assay: SEC-MALS; Superdex 200 HR 10/30 coupled to MALS and refractive index detectors; 20 mM Tris-HCl pH 8.0, 150 mM NaCl; measured mass 103.72 kDa against 52.79 kDa theoretical monomer

B1: ω-transaminase from Vibrio fluvialis JS17 (Vfat), apo (cofactor-free) form (enzyme, UniProt F2XBU9 1-453, looked up)
chain: MNKPQSWEARAETYSLYGFTDMPSLHQRGTVVVTHGEGPYIVDVNGRRYLDANSGLWNMVAGFDHKGLIDAAKAQYERFPGYHAFFGRMSDQTVMLSEKLVEVSPFDSGRVFYTNSGSEANDTMVKMLWFLHAAEGKPQKRKILTRWNAYHGVTAVSASMTGKPYNSVFGLPLPGFVHLTCPHYWRYGEEGETEEQFVARLARELEETIQREGADTIAGFFAEPVMGAGGVIPPAKGYFQAILPILRKYDIPVISDEVICGFGRTGNTWGCVTYDFTPDAIISSKNLTAGFFPMGAVILGPELSKRLETAIEAIEEFPHGFTASGHPVGCAIALKAIDVVMNEGLAENVRRLAPRFEERLKHIAERPNIGEYRGIGFMWALEAVKDKASKTPFDGNLSVSERIANTCTDLGLICRPLGQSVVLCPPFILTEAQMDEMFDKLEKALDKVFAEVA
notes: ω-transaminase (amine:pyruvate transaminase) from Vibrio fluvialis JS17; 'the coding region of Vfat' cloned into pET24ma; theoretical mass with the His-tag 52.79 kDa; Homodimer by MALS and in the crystal; also called apo Vfat; amine:pyruvate transaminase; source: E. coli BL21 (DE3), purified (Ni-NTA, Superdex 200 gel filtration); not shown: His-tag, C-terminal, kept
stoichiometry N: 2
